# Data published in paper PMC4021431, “Identification of glutathione (GSH)-independent glyoxalase III from Schizosaccharomyces pombe” (BMC Evolutionary Biology, 2014).
# Substitutions are numbered along the chain they refer to. Names may count otherwise.
# B1: SpDJ-1 (Schizosaccharomyces pombe 972h-) (protein)
# chain: MVKVCLFVADGTDEIEFSAPWGIFKRAEIPIDSVYVGENKDRLVKMSRDVEMYANRSYKEIPSADDFAKQYDIAIIPGGGLGAKTLSTTPFVQQVVKEFYKKPNKWIGMICAGTLTAKTSGLPNKQITGHPSVRGQLEEGGYKYLDQPVVLEENLITSQGPGTAMLFGLKLLEQVASKDKYNAVYKSLSMP
# notes: full length (191 aa), C-terminal His6 (pET28a, NcoI/XhoI), E. coli BL21(DE3), Ni-NTA
# B2: SpDJ-1 (Schizosaccharomyces pombe 972h-; H130A) (protein)
# chain: B1 chain with H130A
# notes: as for B1
# B3: Hsp3102 (Schizosaccharomyces pombe 972h-) (protein)
# chain: MSIAKGKNALLVASSYYGPFYPDGKNTGVHFSELLIPYNVFKKAGFNVQFVSENGSYKFDDHSIEESKLGDFERKVFNDKNDDFWTNLNNMKKASDIVGKDYQLLFVAGGHAAMFDLPKATNLQAVAREVFTNGGVLSAVCHGPVLLANVKNPQSVEGKTVVYHKHVTAFNKAGEEKMGVMDELKKRGMKSLNEIFAEAGATFIDPPNPNVNFTQIDGKIVTGVNPQSAKSTAEAAVSAL
# notes: full length (240 aa), C-terminal His tag (pESP3), expressed in S. pombe yAS56, Ni-NTA
# B4: ScHsp31 (Saccharomyces cerevisiae S288C) (protein)
# chain: MAPKKVLLALTSYNDVFYSDGAKTGVFVVEALHPFNTFRKEGFEVDFVSETGKFGWDEHSLAKDFLNGQDETDFKNKDSDFNKTLAKIKTPKEVNADDYQIFFASAGHGTLFDYPKAKDLQDIASEIYANGGVVAAVCHGPAIFDGLTDKKTGRPLIEGKSITGFTDVGETILGVDSILKAKNLATVEDVAKKYGAKYLAPVGPWDDYSITDGRLVTGVNPASAHSTAVRSIDALKN
# notes: full length (237 aa), C-terminal His6 (pET28a), E. coli BL21(DE3), Ni-NTA
# B5: Hsp3101 (Schizosaccharomyces pombe 972h-) (protein)
# chain: MASEGKVLLVASSYYGPFYPDGMNTGVHFAELLIPYQVFREAGYEVQLTSETGKCKFDDHSIKKSALGEVERDAFDNKDNEFWYALKDIKPADKINYKEFCIMFIAGGHAAMFDLPHATNLQTLAQQIYASNGVLAAVCHGPVMLPFVDDTKSPEGRSVVYGKKVTAFNSTGELVMGVSSALRERNMQDLNSLFREAGAEFVDPPTPMSDFTQVDGRIVTGVNPMSAKSTAEAAIKVSQSLRKT
# notes: full length (244 aa), C-terminal His6 (pET28a), E. coli BL21(DE3), Ni-NTA
# Key:
# Test in all cases: DNPH colorimetric glyoxalase III assay, A540
# [1] = substrate: CC(=O)C=O; type: biochemical, Schizosaccharomyces pombe; conditions: GSH-independent, 100 mM Na3PO4 pH 6.8, 45 °C, MG 0.5-3 mM (below Km)
# Excerpt: DNPH colorimetric glyoxalase III assay, A540 on SpDJ-1
# [2] = substrate: CC(=O)C=O; type: biochemical, Schizosaccharomyces pombe; conditions: GSH-independent, 100 mM Na3PO4 pH 6.8, 45 °C
# Excerpt: DNPH colorimetric glyoxalase III assay, A540 on Hsp3102
# [3] = substrate: CC(=O)C=O; type: biochemical, Saccharomyces cerevisiae; conditions: GSH-independent, 100 mM Na3PO4 pH 6.8, 45 °C
# Excerpt: DNPH colorimetric glyoxalase III assay, A540 on ScHsp31
# [4] = substrate: CC(=O)C=O; type: biochemical, Schizosaccharomyces pombe; conditions: GSH-independent, 100 mM Na3PO4 pH 6.8, 45 °C; remark: listed apart in the source
# Excerpt: DNPH colorimetric glyoxalase III assay, A540 on Hsp3101
protein,measurement,setting,value
B1,Km,[1],10800 µM
same,kcat,[1],1.43 s⁻¹
same,kcat/Km,[1],132 M⁻¹ s⁻¹
B2,Km,[1],37300 µM
same,kcat,[1],1.09 s⁻¹
same,kcat/Km,[1],30 M⁻¹ s⁻¹
B3,Km,[2],2700 µM
same,kcat,[2],0.967 s⁻¹
same,kcat/Km,[2],350 M⁻¹ s⁻¹
B4,Km,[3],1500 µM
same,kcat,[3],1.25 s⁻¹
same,kcat/Km,[3],850 M⁻¹ s⁻¹
B5,Km,[4],1400 µM
same,kcat,[4],0.518 s⁻¹
same,kcat/Km,[4],383 M⁻¹ s⁻¹
